From the RNAGym collection of RNA variant scans (doi:10.1073/pnas.2313332121)
Variants at the floor of the assay were thinned out.

B1: TPR 5TU (parent)
chain: GGAUCUUCUCGAUCUAACAAAAAAGACAAAUCUGCCACAAAGCUUGAGAGCAUCUUCGGAUGCAGAGGCGGCAGCCUUCGGUGGCGCGAUAGCGCCAACGUUCUCAACUAUGACACGCAAAACGCGUGCUCCGUUGAAUGGAGUUUAUCAUG

Variants of: B1
Test: polymerase ribozyme fitness, log enrichment relative to wild type (log ratio); higher = more active; in vitro selection for triplet polymerase activity
Outline: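 Fitness is a logarithmic measure of how a genotype enriched relative to the wild type, with replicate averages weighted by inverse variance. The logarithm uses base 2, and enrichment came from Illumina sequencing of input and output libraries. Those libraries were PCR-built, transcribed mutants of each subunit of a heterodimeric triplet polymerase ribozyme, passed through one triplicate in vitro selection round that included frozen incubation at −7 °C, gel excision of extended constructs and streptavidin-bead capture. Genotypes were kept only if they had ≥10 input reads and ≥1 read per output.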

Point of comparison: U31A A52C A91U, “polymerase ribozyme fitness (log ratio)” value -4.06. Against it:
- U31A A49G U55A G59U C96G — higher, -1.89
- A30G A121U — higher, -3.39
- A30G A121G — higher, -3.36
- A30C C85U — within 0.2 log units, -4.09
- A30G C76U C96U — lower, ≤ -4.2
- U31A C54U G83U G94U G124A A142C — within 0.2 log units, -4.09
- U31A A91C C116A — within 0.2 log units, -3.88
- A30C G48C G50U A98G A107G C118U A120C G141U — lower, ≤ -4.2
- A30G G42A — lower, ≤ -4.2
- A30G A91U A137G G141U — lower, ≤ -4.2
- A30U U44A C85A A110C U111C — lower, ≤ -4.2
- A30U C35U G68U A120U — lower, ≤ -4.2
- A30U C54G C95A A98U A122C G141C U144C — lower, ≤ -4.2
- A30C C43U A49C C85G C108G — lower, ≤ -4.2
- A30U G94U — lower, ≤ -4.2
- A30U G94A — higher, -3.7
- A30U G42A C85U A89G C99A A107C A122U C125A U144C C149A — lower, ≤ -4.2
- A30U U55A G74A C79U C87A C116A — lower, ≤ -4.2
- A30G G42U A113U C114U C125U — lower, ≤ -4.2
- A29G U55G C57G C87A A107G — lower, ≤ -4.2
- A29G G70A A120U G143A A150C — lower, ≤ -4.2
- A30C A64U G65A G70A G84U A91C C103U G136C C149G — lower, ≤ -4.2
- A30U C54A A97U C116U G117U — lower, ≤ -4.2
- A29G G48A C75U — lower, ≤ -4.2
- A30U C38A C75G C85U G141C — lower, ≤ -4.2
- U31A C76U C116U U127G — lower, ≤ -4.2
- A29U U111C C114G G140U — lower, ≤ -4.2
- A29U G48A C87G A121G G141C G152U — lower, ≤ -4.2
- A30G C38U A73U U78G C87G C105G — lower, ≤ -4.2
- U31A C54G C57A C85G C123U — higher, -3.47
- A29G C51U G62A G84A U139G — lower, ≤ -4.2
- A30C C93U A106U C131A A142C — within 0.2 log units, -4.12
- A29G G50A G80U A91C U134A U146C — lower, ≤ -4.2
- A30U G50A C57A C75U C85A G140U G143A — lower, ≤ -4.2
- A30G G86C A147C — lower, ≤ -4.2
- A30C C95U — within 0.2 log units, -4.11
- A29U C35G C95G — within 0.2 log units, -4.03
- A30C G50C A66G G128U — lower, ≤ -4.2
- A30U A37C G50C A91G A150G — lower, ≤ -4.2
- A29U U55G C57U G67C A98G — lower, ≤ -4.2
- A30U C85U A97U G128A G140C C149U — lower, ≤ -4.2
- A30C C38A C54U A60G G84U G141A G143A — lower, ≤ -4.2
- A29U A41U U53G G88U A89G G117A — lower, ≤ -4.2
- A29U G68A G83A C103G — lower, ≤ -4.2
- A30U C38G G50C C87G G117A — lower, ≤ -4.2
- U31A C35G A66C G68U — within 0.2 log units, -4.17
- A30U U55G C57A C93U — within 0.2 log units, -4.13
- A30U A40G G50C G67A C76A C85U A89C C132U — lower, ≤ -4.2
- U31A C69A C95A C116G — higher, -2
- A29U G50A C116U C129G — lower, ≤ -4.2
- A30U C54U C85A G128C G140U G141A — lower, ≤ -4.2
- A30G U53A G62U A64G — lower, ≤ -4.2
- A29U G68A — lower, ≤ -4.2
- A30U G70A G143C — lower, ≤ -4.2
- A29G G84U G117A — lower, ≤ -4.2
- A30G G80A — higher, -3.66
- A30U C43U G70U C87G — lower, ≤ -4.2
- A29U G48U U61G G83C — lower, ≤ -4.2
- A29U U33C A52C G86A — lower, ≤ -4.2
- A30C C57U G59C U82A G117A A138C — lower, ≤ -4.2
- A29U C32A A41U G71C C85U C87U A98C — lower, ≤ -4.2
- A29U G50A G58C A60C G88A C116G U139A G141C G143C — higher, -3.79
- A30U C54U C85U — within 0.2 log units, -3.87
- A30C G48C A60G — lower, ≤ -4.2
- A29G C76G C93U — lower, ≤ -4.2
- A30G U45A A106C U135G — higher, -3.85
- A29G C96A — higher, -3.46
- A29G C93G A115U C116G C149G — lower, ≤ -4.2
- A30G G48U C76G C96U A97C U134G — lower, ≤ -4.2
- U31A C32G A41U G67U G80C G86C A147U — lower, ≤ -4.2
- A30U G84A C96U U144A — lower, ≤ -4.2
- A29G G86U G143A — lower, ≤ -4.2
- A30C A41G C76U G83A A89U G124A C131U C132G G143A U144A C149A — lower, ≤ -4.2
- A30G U77C G84C G86U U102A C118U — lower, ≤ -4.2
- A30U G68U A73U G140U — lower, ≤ -4.2
- A30G U45G G46C C76U C87U U135A — lower, ≤ -4.2
- A30G C87U U101A U109C A115U A120U A122U U145G G152A — lower, ≤ -4.2
- A30U A66G G68A C76U G141U A142U — lower, ≤ -4.2
- U31A A73C — within 0.2 log units, -4.13
- A30U C35U G141U — lower, ≤ -4.2
- U31A A66U G86U G100C — lower, ≤ -4.2
- A30U A39G A98G C99U C105G — lower, ≤ -4.2
- A30C C79A G88A A107G C116G A137G U144C — lower, ≤ -4.2
- U31A A73U C95G — higher, -3.66
- A29U U55A A60G G86A U130C — lower, ≤ -4.2
- A29G G59U A60U C114U — lower, ≤ -4.2
- A30C C54U C69A G70A A137C — lower, ≤ -4.2
- A30U A49C A60U U77C U148A — lower, ≤ -4.2
- A30C A37C A49C A52C C57G G83A A115U G143C — lower, ≤ -4.2
- A30C C35U C54U C85U A121U — lower, ≤ -4.2
- A29G U111A — lower, ≤ -4.2
- A30U G50C C96U U104C G136U — lower, ≤ -4.2
- A30U C32U G48A C51U U56G C76U — lower, ≤ -4.2
- A30G C108U U109A — lower, ≤ -4.2
- A29U G94U U109A — lower, ≤ -4.2
- A29U A41U A47C C114G C132U — lower, ≤ -4.2
- A30G C93A — within 0.2 log units, -3.95
- A30G C87G U101C A122G — lower, ≤ -4.2
- A30G A39C U55G U82C G136U — lower, ≤ -4.2
- A29U C87U A122U U145C — higher, -3.85
- A29U A41C U61A G67U G86U G92A C93A G133C — lower, ≤ -4.2
- A29U G34C G48C G80A U82A C105A A115G U151A — lower, ≤ -4.2
- A30G G50C C51A G84A C87G G100U A121G — lower, ≤ -4.2
- A30U A52C G67A G68A C87U A91G C95G U127C G143U U148G — lower, ≤ -4.2
- A30C A52C C85U C99A A115U C131U G141C — lower, ≤ -4.2
- A29U U77A G80A G92A U148C — lower, ≤ -4.2
- A29U C51G G58C G71A A91G C95A C103G U151A G152A — lower, ≤ -4.2
- U31A C32A G59A C93G A113U A150C — lower, ≤ -4.2
- A29U U53G G81A G88C — lower, ≤ -4.2
- A30U U77A G84U A91C G94C C99G G141C — lower, ≤ -4.2
- A29G G58C A60C G71A C129G — lower, ≤ -4.2
- U31A C57U C87U A89G G117A — higher, -3.86
- A29U C32U A122G — lower, ≤ -4.2
- A30G A40G C54A C85U G117C — lower, ≤ -4.2
- A30U G83U G141U — within 0.2 log units, -3.89
- A30C U33A G68U A73U C95A C114A A121G — lower, ≤ -4.2
- A30G C54U C76G A91C — lower, ≤ -4.2
- A29G C76U G92A C123G G143U — lower, ≤ -4.2
- A30U C69U G83A — lower, ≤ -4.2
- A30C C96A U135A A137U — lower, ≤ -4.2
- A30G C95A U104A C118U C131A A138U G141A — lower, ≤ -4.2
- A30G C54G A121U U139A U145C — lower, ≤ -4.2
- A30U C54A C76A C87G G92A G143C — lower, ≤ -4.2
- A30C G48C G67A A91U G100U — lower, ≤ -4.2
- A30C G81C A138G U146A C149U — lower, ≤ -4.2
- A30C C57G C63U G65U C96U A97U — lower, ≤ -4.2
- A29U C99A — within 0.2 log units, -4.17
- A29U G70U G71A C87U U90A A106U — lower, ≤ -4.2
- U31A A39U C93G C95U C99U A107G A113U C132U U135C A138G — lower, ≤ -4.2
- A29G C51U C96G — lower, ≤ -4.2
- U31A A49G C105U — higher, -0.707
- A30C A47G G70U U102G G126U G152U — lower, ≤ -4.2
- A30G U44C G88C C105A — lower, ≤ -4.2
- A30C U53A G84A — lower, ≤ -4.2
- A29U C69A G84A G141A — lower, ≤ -4.2
- A29U C63U C114U — lower, ≤ -4.2
- A29U U31G A47C U61A G81A C95U G100U — lower, ≤ -4.2
- A29U A73G C93A G128U G140U — lower, ≤ -4.2
- A30U A60C G62A C76A C96G U127G G143C — lower, ≤ -4.2
- A30U U55A G59A G70A C96G A97G — lower, ≤ -4.2
- A29G U90G A122U A142U C149G — lower, ≤ -4.2
- A29U G58C G84A C105U A113C — lower, ≤ -4.2
- A30G G46A A107U — within 0.2 log units, -4.03
- A30U C79U G83C — lower, ≤ -4.2
- A30U U82A C85A U104A — lower, ≤ -4.2
- A30U G71C C95A — lower, ≤ -4.2
- A29U G59C U82A C93U — lower, ≤ -4.2
- A29U A49G C54G G59U A91U C96A G117U A142U — lower, ≤ -4.2
- A29U U44A G58C U61A G71U U77A U82G G140C — lower, ≤ -4.2
- A29U A107C — lower, ≤ -4.2
- A29U G46U G59A G70A A89U G117U U148A — lower, ≤ -4.2
- A29U C32U G62A G67U C75G U82G A142U A150G — higher, -3.64
- A30G G48A C54U C85U — lower, ≤ -4.2
- A30G G42U A52C C57A C96A A120G — lower, ≤ -4.2
- A30U U56A G62A G126A — higher, -3.5
- A30G A64G G136C — within 0.2 log units, -4.07
- A30G C57U C63U G68C C95U A120C C125G — lower, ≤ -4.2
- A30C C76A G83C — lower, ≤ -4.2
- A29G C105G U146G — lower, ≤ -4.2
- A30C A142C U144C — lower, ≤ -4.2
- A30U U61G G68A C93U C103G A147C — lower, ≤ -4.2
- A30G U56A C85G C132U — lower, ≤ -4.2
- A29G U45C A52C U53G U134C G136U — lower, ≤ -4.2
- A29U U44C U45A C57A A64G C76A C95A A150C — lower, ≤ -4.2
- A30U U61A G70C C96A U111G G140A — lower, ≤ -4.2
- A30G C75A G94U A137C G143U A150U — lower, ≤ -4.2
